Columns and labels:
Assay in all cases: cell-based or functional assay
[1] = target: HIV-1 Env of pseudovirus 0815.v3.c3 (HIV-1)
[2] = target: HIV-1 Env of pseudovirus 231965.c01 (HIV-1)
[3] = target: HIV-1 Env of pseudovirus 231966.c02 (HIV-1)
[4] = target: HIV-1 Env of pseudovirus 235-47 (HIV-1)
[5] = target: HIV-1 Env of pseudovirus 263-8 (HIV-1)
[6] = target: HIV-1 Env of pseudovirus 3016.v5.c45 (HIV-1)
[7] = target: HIV-1 Env of pseudovirus 3103.v3.c10 (HIV-1)
[8] = target: HIV-1 Env of pseudovirus 3301.v1.c24 (HIV-1)
[9] = target: HIV-1 Env of pseudovirus 3817.v2.c59 (HIV-1)
[10] = target: HIV-1 Env of pseudovirus 6041.v3.c23 (HIV-1)
[11] = target: HIV-1 Env of pseudovirus 620345.c01 (HIV-1)
[12] = target: HIV-1 Env of pseudovirus 6480.v4.c25 (HIV-1)
[13] = target: HIV-1 Env of pseudovirus 6540.v4.c1 (HIV-1)
[14] = target: HIV-1 Env of pseudovirus 6545.v4.c1 (HIV-1)
[15] = target: HIV-1 Env of pseudovirus 6811.v7.c18 (HIV-1)
[16] = target: HIV-1 Env of pseudovirus 6952.v1.c20 (HIV-1)
[17] = target: HIV-1 Env of pseudovirus 9004SS_A3_4 (HIV-1)
[18] = target: HIV-1 Env of pseudovirus 928-28 (HIV-1)
[19] = target: HIV-1 Env of pseudovirus A07412M1.vrc12 (HIV-1)
[20] = target: HIV-1 Env of pseudovirus BJOX015000.11.5 (HIV-1)
[21] = target: HIV-1 Env of pseudovirus BJOX025000.01.1 (HIV-1)
[22] = target: HIV-1 Env of pseudovirus BJOX028000.10.3 (HIV-1)
[23] = target: HIV-1 Env of pseudovirus C1080.c03 (HIV-1)
[24] = target: HIV-1 Env of pseudovirus C3347.c11 (HIV-1)
[25] = target: HIV-1 Env of pseudovirus P0402_c2_11 (HIV-1)
[26] = target: HIV-1 Env of pseudovirus R1166.c01 (HIV-1)
[27] = target: HIV-1 Env of pseudovirus R2184.c04 (HIV-1)
[28] = target: HIV-1 Env of pseudovirus R3265.c06 (HIV-1)
[29] = target: HIV-1 Env of pseudovirus T251-18 (HIV-1)
[30] = target: HIV-1 Env of pseudovirus T257-31 (HIV-1)
[31] = target: HIV-1 Env of pseudovirus T278-50 (HIV-1)
[32] = target: HIV-1 Env of pseudovirus X1193_c1 (HIV-1)
[33] = target: HIV-1 Env of pseudovirus X1254_c3 (HIV-1)
[34] = target: HIV-1 Env of pseudovirus X1632_S2_B10 (HIV-1)
[35] = target: HIV-1 Env of pseudovirus X2088_c9 (HIV-1)
[36] = target: HIV-1 Env of pseudovirus X2131_C1_B5 (HIV-1)

## PGT128 (antibody)
[1]
  IC50 (Titer in TZM.bl cells): 0.03 µg/mL
  IC80 (Titer in TZM.bl cells): 0.137 µg/mL
[2]
  IC50 (Titer in TZM.bl cells): > 50 µg/mL
  IC80 (Titer in TZM.bl cells): > 50 µg/mL
[3]
  IC50 (Titer in TZM.bl cells): 3.2 µg/mL
  IC80 (Titer in TZM.bl cells): > 50 µg/mL
[4]
  IC50 (Titer in TZM.bl cells): > 50 µg/mL
  IC80 (Titer in TZM.bl cells): > 50 µg/mL
[5]
  neutralization IC50: 0.342 µg/mL
  neutralization IC80: 3.3 µg/mL
[6]
  IC50 (Titer in TZM.bl cells): > 50 µg/mL
  IC80 (Titer in TZM.bl cells): > 50 µg/mL
[7]
  IC50 (Titer in TZM.bl cells): 0.014 µg/mL
  IC80 (Titer in TZM.bl cells): 0.033 µg/mL
[8]
  IC50 (Titer in TZM.bl cells): 0.067 µg/mL
  IC80 (Titer in TZM.bl cells): 0.499 µg/mL
[9]
  IC50 (Titer in TZM.bl cells): 0.003 µg/mL
  IC80 (Titer in TZM.bl cells): 0.023 µg/mL
[10]
  IC50 (Titer in TZM.bl cells): > 50 µg/mL
  IC80 (Titer in TZM.bl cells): > 50 µg/mL
[11]
  IC50 (Titer in TZM.bl cells): > 50 µg/mL
  IC80 (Titer in TZM.bl cells): > 50 µg/mL
[12]
  IC50 (Titer in TZM.bl cells): 0.003 µg/mL
  IC80 (Titer in TZM.bl cells): 0.019 µg/mL
[13]
  IC50 (Titer in TZM.bl cells): 11.8 µg/mL
  IC80 (Titer in TZM.bl cells): > 50 µg/mL
[14]
  IC50 (Titer in TZM.bl cells): > 50 µg/mL
  IC80 (Titer in TZM.bl cells): > 50 µg/mL
[15]
  IC50 (Titer in TZM.bl cells): 0.003 µg/mL
  IC80 (Titer in TZM.bl cells): 0.05 µg/mL
[16]
  IC50 (Titer in TZM.bl cells): > 50 µg/mL
  IC80 (Titer in TZM.bl cells): > 50 µg/mL
[17]
  neutralization IC50: 0.002 µg/mL
  neutralization IC80: 0.01 µg/mL
[18]
  neutralization IC50: > 50 µg/mL
  neutralization IC80: > 50 µg/mL
[19]
  IC50 (Titer in TZM.bl cells): > 50 µg/mL
  IC80 (Titer in TZM.bl cells): > 50 µg/mL
[20]
  IC50 (Titer in TZM.bl cells): 0.001 µg/mL
  IC80 (Titer in TZM.bl cells): 0.011 µg/mL
[21]
  IC50 (Titer in TZM.bl cells): > 50 µg/mL
  IC80 (Titer in TZM.bl cells): > 50 µg/mL
[22]
  IC50 (Titer in TZM.bl cells): 0.024 µg/mL
  IC80 (Titer in TZM.bl cells): 0.07 µg/mL
[23]
  IC50 (Titer in TZM.bl cells): 0.283 µg/mL
  IC80 (Titer in TZM.bl cells): 2.06 µg/mL
[24]
  IC50 (Titer in TZM.bl cells): 0.001 µg/mL
  IC80 (Titer in TZM.bl cells): 0.007 µg/mL
[25]
  IC50 (Titer in TZM.bl cells): 0.007 µg/mL
  IC80 (Titer in TZM.bl cells): 0.02 µg/mL
[26]
  IC50 (Titer in TZM.bl cells): > 50 µg/mL
  IC80 (Titer in TZM.bl cells): > 50 µg/mL
[27]
  IC50 (Titer in TZM.bl cells): 20.1 µg/mL
  IC80 (Titer in TZM.bl cells): > 50 µg/mL
[28]
  IC50 (Titer in TZM.bl cells): > 50 µg/mL
  IC80 (Titer in TZM.bl cells): > 50 µg/mL
[29]
  IC50 (Titer in TZM.bl cells): > 50 µg/mL
  IC80 (Titer in TZM.bl cells): > 50 µg/mL
[30]
  neutralization IC50: > 50 µg/mL
  neutralization IC80: > 50 µg/mL
[31]
  IC50 (Titer in TZM.bl cells): 0.031 µg/mL
  IC80 (Titer in TZM.bl cells): 0.089 µg/mL
[32]
  IC50 (Titer in TZM.bl cells): > 50 µg/mL
  IC80 (Titer in TZM.bl cells): > 50 µg/mL
[33]
  IC50 (Titer in TZM.bl cells): > 50 µg/mL
  IC80 (Titer in TZM.bl cells): > 50 µg/mL
[34]
  IC50 (Titer in TZM.bl cells): > 50 µg/mL
  IC80 (Titer in TZM.bl cells): > 50 µg/mL
[35]
  IC50 (Titer in TZM.bl cells): > 50 µg/mL
  IC80 (Titer in TZM.bl cells): > 50 µg/mL
[36]
  IC50 (Titer in TZM.bl cells): > 50 µg/mL
  IC80 (Titer in TZM.bl cells): > 50 µg/mL

From patent US20240117018A1
